Key:
[1] = target: canine anionic trypsin (canine (dog)); assay: Kodazyme Trypsin M·EIA sandwich EIA, canine anionic trypsin 100 ng/ml, duplicate
[2] = target: standard human trypsin sample enclosed in the Kodazyme Trypsin M·EIA kit (human); assay: Kodazyme Trypsin M·EIA sandwich EIA, standard human trypsin 200 ng/ml
[3] = target: canine cationic trypsin (canine (dog)); assay: Kodazyme Trypsin M·EIA sandwich EIA, canine cationic trypsin 400 ng/ml
[4] = target: standard human trypsin sample enclosed in the Kodazyme Trypsin M·EIA kit (human); assay: Kodazyme Trypsin M·EIA sandwich EIA, standard human trypsin 50 ng/ml
[5] = target: canine cationic trypsin (canine (dog)); assay: Kodazyme Trypsin M·EIA sandwich EIA, canine cationic trypsin 100 ng/ml, duplicate
[6] = target: standard human trypsin sample enclosed in the Kodazyme Trypsin M·EIA kit (human); assay: Kodazyme Trypsin M·EIA sandwich EIA, standard human trypsin 10 ng/ml, duplicate
[7] = target: canine cationic trypsin (canine (dog)); assay: Kodazyme Trypsin M·EIA sandwich EIA, canine cationic trypsin 50 ng/ml, duplicate
[8] = target: canine cationic trypsin (canine (dog)); assay: Kodazyme Trypsin M·EIA sandwich EIA, canine cationic trypsin 400 ng/ml, duplicate
[9] = target: canine cationic trypsin (canine (dog)); assay: Kodazyme Trypsin M·EIA sandwich EIA, canine cationic trypsin 6.25 ng/ml
[10] = target: standard human trypsin sample enclosed in the Kodazyme Trypsin M·EIA kit (human); assay: Kodazyme Trypsin M·EIA sandwich EIA, standard human trypsin 100 ng/ml
[11] = target: canine anionic trypsin (canine (dog)); assay: Kodazyme Trypsin M·EIA sandwich EIA, canine anionic trypsin 25 ng/ml
[12] = target: canine cationic trypsin (canine (dog)); assay: Kodazyme Trypsin M·EIA sandwich EIA, canine cationic trypsin 6.25 ng/ml, duplicate
[13] = target: canine anionic trypsin (canine (dog)); assay: Kodazyme Trypsin M·EIA sandwich EIA, canine anionic trypsin 6.25 ng/ml, duplicate
[14] = target: canine anionic trypsin (canine (dog)); assay: Kodazyme Trypsin M·EIA sandwich EIA, canine anionic trypsin 400 ng/ml, duplicate
[15] = target: canine cationic trypsin (canine (dog)); assay: Kodazyme Trypsin M·EIA sandwich EIA, canine cationic trypsin 25 ng/ml, duplicate
[16] = target: canine cationic trypsin (canine (dog)); assay: Kodazyme Trypsin M·EIA sandwich EIA, canine cationic trypsin 200 ng/ml
[17] = target: canine cationic trypsin (canine (dog)); assay: Kodazyme Trypsin M·EIA sandwich EIA, canine cationic trypsin 12.5 ng/ml, duplicate
[18] = target: canine cationic trypsin (canine (dog)); assay: Kodazyme Trypsin M·EIA sandwich EIA, canine cationic trypsin 200 ng/ml, duplicate
[19] = target: standard human trypsin sample enclosed in the Kodazyme Trypsin M·EIA kit (human); assay: Kodazyme Trypsin M·EIA sandwich EIA, standard human trypsin 50 ng/ml, duplicate
[20] = target: standard human trypsin sample enclosed in the Kodazyme Trypsin M·EIA kit (human); assay: Kodazyme Trypsin M·EIA sandwich EIA, standard human trypsin 200 ng/ml, duplicate
[21] = target: standard human trypsin sample enclosed in the Kodazyme Trypsin M·EIA kit (human); assay: Kodazyme Trypsin M·EIA sandwich EIA, standard human trypsin 400 ng/ml
[22] = target: canine anionic trypsin (canine (dog)); assay: Kodazyme Trypsin M·EIA sandwich EIA, canine anionic trypsin 200 ng/ml
[23] = target: canine cationic trypsin (canine (dog)); assay: Kodazyme Trypsin M·EIA sandwich EIA, canine cationic trypsin 12.5 ng/ml
[24] = target: canine anionic trypsin (canine (dog)); assay: Kodazyme Trypsin M·EIA sandwich EIA, canine anionic trypsin 50 ng/ml
[25] = target: canine anionic trypsin (canine (dog)); assay: Kodazyme Trypsin M·EIA sandwich EIA, canine anionic trypsin 12.5 ng/ml, duplicate
[26] = target: canine cationic trypsin (canine (dog)); assay: Kodazyme Trypsin M·EIA sandwich EIA, canine cationic trypsin 100 ng/ml
[27] = target: canine cationic trypsin (canine (dog)); assay: Kodazyme Trypsin M·EIA sandwich EIA, canine cationic trypsin 25 ng/ml
[28] = target: canine anionic trypsin (canine (dog)); assay: Kodazyme Trypsin M·EIA sandwich EIA, canine anionic trypsin 25 ng/ml, duplicate
[29] = target: canine cationic trypsin (canine (dog)); assay: Kodazyme Trypsin M·EIA sandwich EIA, canine cationic trypsin 50 ng/ml
[30] = target: canine anionic trypsin (canine (dog)); assay: Kodazyme Trypsin M·EIA sandwich EIA, canine anionic trypsin 6.25 ng/ml
[31] = target: canine anionic trypsin (canine (dog)); assay: Kodazyme Trypsin M·EIA sandwich EIA, canine anionic trypsin 100 ng/ml
[32] = target: standard human trypsin sample enclosed in the Kodazyme Trypsin M·EIA kit (human); assay: Kodazyme Trypsin M·EIA sandwich EIA, standard human trypsin 10 ng/ml
[33] = target: canine anionic trypsin (canine (dog)); assay: Kodazyme Trypsin M·EIA sandwich EIA, canine anionic trypsin 12.5 ng/ml
[34] = target: canine anionic trypsin (canine (dog)); assay: Kodazyme Trypsin M·EIA sandwich EIA, canine anionic trypsin 400 ng/ml
[35] = target: standard human trypsin sample enclosed in the Kodazyme Trypsin M·EIA kit (human); assay: Kodazyme Trypsin M·EIA sandwich EIA, standard human trypsin 600 ng/ml
[36] = target: canine anionic trypsin (canine (dog)); assay: Kodazyme Trypsin M·EIA sandwich EIA, canine anionic trypsin 50 ng/ml, duplicate
[37] = target: canine anionic trypsin (canine (dog)); assay: Kodazyme Trypsin M·EIA sandwich EIA, canine anionic trypsin 200 ng/ml, duplicate
[38] = target: standard human trypsin sample enclosed in the Kodazyme Trypsin M·EIA kit (human); assay: Kodazyme Trypsin M·EIA sandwich EIA, standard human trypsin 400 ng/ml, duplicate

A492 [1]: 0.022
A492 [2]: 0.538
A492 [3]: 0.021
A492 [4]: 0.224
A492 [5]: 0.019
A492 [6]: 0.131
A492 [7]: 0.017
A492 [8]: 0.019
A492 [9]: 0.048
A492 [10]: 0.399
A492 [11]: 0.023
A492 [12]: 0.019
A492 [13]: 0.023
A492 [14]: 0.038
A492 [15]: 0.018
A492 [16]: 0.017
A492 [17]: 0.019
A492 [18]: 0.015
A492 [19]: 0.202
A492 [20]: 0.697
A492 [21]: 1.15
A492 [22]: 0.023
A492 [23]: 0.021
A492 [24]: 0.021
A492 [25]: 0.024
A492 [26]: 0.029
A492 [27]: 0.023
A492 [28]: 0.021
A492 [29]: 0.017
A492 [30]: 0.023
A492 [31]: 0.02
A492 [32]: 0.065
A492 [33]: 0.02
A492 [34]: 0.032
A492 [35]: 1.58
A492 [36]: 0.02
A492 [37]: 0.019
A492 [38]: 0.953
Substance: human trypsin MAb of Kodazyme Trypsin M·EIA (antibody)

— patent EP1106701A1
